The source of these data is patent US5972599, “High affinity nucleic acid ligands of cytokines” (NeXstar Pharmaceuticals, Inc.).

Data set [1] addresses T1, IFN-gamma (Homo sapiens, UniProt P01579 P01579:24-161). The experiment in a line: filter; full-length. The note with it: tags: Genzyme (Cambridge MA); Upstate Biotechnology for early SELEX rounds; chain copies: 2 inferred. As to the method:
(§1) The determination of equilibrium dissociation constants (Kds) for RNA pools was made subsequent to rounds 5, 8, 12, and 17 to monitor the progress of each SELEX. The Kds of RNA pools for mouse IFN-gamma (Genzyme Inc., Cambridge Mass.) were also determined after rounds 8 and 17. Kds were determined for individual ligands after cloning and sequencing of RNA pools and truncations (described below). Nitrocellulose filter binding was used to determine Kds as follows: filter discs were placed into a vacuum manifold and wetted with 5 ml of mPBS buffer. ^32P-labeled-RNA was incubated with serial dilutions of IFN-gamma in binding buffer for 5–10 min at 37° C. to allow binding to occur. […] The filter discs were dried and counted in a liquid scintillation counter (Beckmann Instruments, Palo Alto Calif.). Equilibrium dissociation constants were determined by least square fitting of the data points using the Kaleidagraph™ graphics program (Synergy Software, Reading Pa.). […] Biphasic binding constants were calculated according to standard procedures. Kds were determined by least square fitting of the data points using the Kaleidagraph™ graphics program.
(§2) The Kds of individual RNAs within each group were determined by nitrocellulose filter binding as described above. The Kds were determined using either a monophasic or biphasic least squares fit of the data.

Data set [2] addresses T1, IFN-gamma. The data set is described as follows: filter; truncate. As to conditions: tags: Genzyme (Cambridge MA); Upstate Biotechnology for early SELEX rounds; chain copies: 2 inferred.
Data set [3] concerns the target T2, IL-4 (Homo sapiens, UniProt P05112 P05112:25-153). The data set is described as follows: filter; truncate. The note with it: tags: R&D Systems.
Data set [4] concerns the target T2, IL-4. The experiment in a line: filter; full-length. As to conditions: tags: R&D Systems.
Data set [5] concerns the target T2, IL-4. The data set is described as follows: competition; 0.7 nM 125I-IL-4, H-9 cells. The note with it: tags: R&D Systems.
Procedure: Following incubation, the tubes were spun (150×g, 5 min, 4° C.) and the supernatant was aspirated. The cell pellet was resuspended in 200 μl RPMI-HSA. 100 μl aliquots were centrifuged through a cushion of an equal volume of phthalate oils (dibutyl/dioctyl, 1:1 v/v). The tube was rapidly frozen in dry ice/ethanol and the tip containing the cell pellet was cut off and placed in a vial for gamma counting.
In data set [6] the target is T3, TNF-alpha (Homo sapiens, UniProt P01375 P01375:77-233). The data set is described as follows: filter; class II. The note with it: tags: Genzyme or R&D Systems; chain copies: 3 inferred.
T3 sequence (P01375 77-233, one chain of several): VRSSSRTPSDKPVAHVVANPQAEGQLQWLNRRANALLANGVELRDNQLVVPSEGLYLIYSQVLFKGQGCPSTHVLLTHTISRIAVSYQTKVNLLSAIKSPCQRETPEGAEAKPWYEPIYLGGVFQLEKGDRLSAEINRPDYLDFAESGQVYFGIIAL
The target of data set [7] is T3, TNF-alpha. The data set is described as follows: competition; U937 cells. As to conditions: tags: Genzyme or R&D Systems; chain copies: 3 inferred. As to the method: (§3) A receptor binding competition assay was used to determine the bioactivity of the RNA ligands. ^125I labelled hTNFα at 0.1 nM was incubated in 50 µl of binding medium (PBS with 0.5 mM Mg^++, 0.2% BSA, 0.02% sodium azide, 1 U/µl RNasin) for 15 min at 4° C. with serially diluted competitors at 10^-4 to 10^-11 M, and 1×10^4/µl U937 cells. Duplicate aliquots were subsequently removed, centrifuged through 2:1 dibutyl-phthalate:dinonyl-phthalate mixture to separate free and bound ^125I labelled hTNFα, and the radioactivity in the pellet was measured on a gamma counter. Nonspecific binding was determined by inclusion of a 200-fold molar excess of unlabeled TNF.

Data set [8] concerns the target T3, TNF-alpha. The data set is described as follows: filter; 2'F version. The note with it: tags: Genzyme or R&D Systems; chain copies: 3 inferred.
Data set [9] deals with T3, TNF-alpha. The data set is described as follows: competition; U937 cells; 2'F version. The note with it: tags: Genzyme or R&D Systems; chain copies: 3 inferred. The procedure: as §3
For data set [10], the target named is T1, IFN-gamma. The experiment in a line: filter; biphasic 8.8/384 nM. The note with it: tags: Genzyme (Cambridge MA); Upstate Biotechnology for early SELEX rounds; chain copies: 2 inferred. The procedure: as §1, §2
Data set [11] has as its target T1, IFN-gamma. The experiment in a line: filter; biphasic 9.3/232 nM. As to conditions: tags: Genzyme (Cambridge MA); Upstate Biotechnology for early SELEX rounds; chain copies: 2 inferred. As to the method: as §1, §2
Data set [12] has as its target T1, IFN-gamma. The experiment in a line: filter; biphasic 3.2/314 nM. As to conditions: tags: Genzyme (Cambridge MA); Upstate Biotechnology for early SELEX rounds; chain copies: 2 inferred. As to the method:
as §1, §2

Data set [13] has as its target T1, IFN-gamma. The data set is described as follows: filter; biphasic 6.8/320 nM; mPBS 1 mM Mg, 0.01% HSA, 37 C. As to conditions: tags: Genzyme (Cambridge MA); Upstate Biotechnology for early SELEX rounds; chain copies: 2 inferred. As to the method:
as §1, §2

Data set [14] deals with T3, TNF-alpha. The data set is described as follows: filter; class I. As to conditions: tags: Genzyme or R&D Systems; chain copies: 3 inferred.
Data set [15] deals with T3, TNF-alpha. The experiment in a line: competition; U937 cells; 3 points. As to conditions: tags: Genzyme or R&D Systems; chain copies: 3 inferred. The procedure: as §3
For data set [16], the target named is T3, TNF-alpha. The data set is described as follows: filter; orphan. As to conditions: tags: Genzyme or R&D Systems; chain copies: 3 inferred.
Data set [17] addresses T2, IL-4. The data set is described as follows: filter; full-length; mPBS 1 mM Mg, 0.01% HSA, 37 C. As to conditions: tags: R&D Systems.
Data set [18] deals with T3, TNF-alpha. The data set is described as follows: filter; DPBS; class I. As to conditions: tags: Genzyme or R&D Systems; chain copies: 3 inferred.
The target of data set [19] is T3, TNF-alpha. The experiment in a line: competition; 125I-hTNFa binding to U937 cells, 4 C. As to conditions: tags: Genzyme or R&D Systems; chain copies: 3 inferred. The procedure: as §3
Data set [20] deals with T3, TNF-alpha. The data set is described as follows: filter; class II; clone 28A printed with the same sequence but no Kd. As to conditions: tags: Genzyme or R&D Systems; chain copies: 3 inferred.
Data set [21] concerns the target T1, IFN-gamma. The experiment in a line: filter; biphasic 4.4/716 nM. As to conditions: tags: Genzyme (Cambridge MA); Upstate Biotechnology for early SELEX rounds; chain copies: 2 inferred. The procedure: as §1, §2

T2 sequence (P05112 25-153, one chain of several): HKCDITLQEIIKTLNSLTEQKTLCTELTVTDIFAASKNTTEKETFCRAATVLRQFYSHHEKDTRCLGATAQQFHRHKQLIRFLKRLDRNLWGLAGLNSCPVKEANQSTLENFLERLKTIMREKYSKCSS
T1 sequence (P01579 24-161, one chain of several): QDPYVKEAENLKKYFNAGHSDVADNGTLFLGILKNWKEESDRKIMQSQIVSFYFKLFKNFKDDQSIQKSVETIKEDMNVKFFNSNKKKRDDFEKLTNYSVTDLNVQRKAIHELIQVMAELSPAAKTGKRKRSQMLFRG

B1: IFN-gamma 2'F-28 (ssRNA)
RNA: GGGAGGACGAUGCGGAGGGUUGGGAGGGGUCCUUCUUUUCGUCUGCGUGGACCGUCAGACGACUCGCCCGA
modifications: 2'-F all C and U
For B1, the Kd in the data set with IFN-gamma [1] is 0.035 µM. In the data set with IFN-gamma [2], GGGAGGACGAUGCGGCAGGUAAUUACAUGAAGGUGGGUUAGGUA (ssRNA, 2'-NH2 all C and U) [IFN-gamma 2'NH2-30 truncate] came in with a Kd of 0.011 µM.

B2: IL-4 2'NH2-29 truncate (ssRNA)
RNA: GGGACGCUCAAGAGCUGGUGAGCCACGUAUACGGCCUUAGGGGCUUGGGCG
modifications: 2'-NH2 all C and U
B2: the Kd with IL-4 [3] was 0.01 µM.

B3: IL-4 2'F/NH2-9 (ssRNA)
RNA: GGGAGACAAGAAUAAACGCUCAAAGAGUGCAGGUCUGGGGCGCCACAAUUACAACGGCAAUAAUUCGACAGGAGGCUCACAACAGGC
modifications: 2'-F all C, 2'-NH2 all U
For B3, binding with IL-4 [4] was put at a Kd of 0.0033 µM. For the same molecule, the IC50 with IL-4 [5] is ~0.04 µM. Turning to GGGAAACGGCUGUAACAAACAAGGUGGGGGGCCACACA (ssRNA, 2'-F all C and U) [IL-4 2'F-9 truncate], the Kd in the data set with IL-4 [3] worked out at 0.018 µM.

B4: TNF 6A (ssRNA)
RNA: GGGAGCUCAGAAUAAACGCUCAACCACUGGCUAGGAACUCGAGUACUGGGUGGUUCGACAUGAGGCCCGGAUCCGGC
With B4, the Kd in the data set with TNF-alpha [6] was 0.12 µM. This molecule also came in with a Ki in the data set with TNF-alpha [7] of 9.1 µM.

B5: TNF 6A 2'F (ssRNA)
RNA: B4 RNA
modifications: 2'-F all C and U
For B5, the Kd in the data set with TNF-alpha [8] worked out at 0.074 µM. Further, the affinity in the data set with TNF-alpha [9] corresponds to a Ki of 8.16 µM.

B6: IFN-gamma 2'F-27 (ssRNA)
RNA: GGGAGGACGAUGCGGAACACCCCCGGUCUGACGCUUGUUCCGAAUUCCUCCACCGUCAGACGACUCGCCCGA
modifications: 2'-F all C and U
With B6, in the data set with IFN-gamma [10], the Kd was found to be 0.0088 µM.

B7: IFN-gamma 2'F-16 (ssRNA)
RNA: GGGAGGACGAUGCGGCAUCCCUAGAGCAGCCAGCCGGAAAGAAGUCACGCCUGCUCAGACGACUCGCCCGA
modifications: 2'-F all C and U
Take B7: the Kd in the data set with IFN-gamma [11] is 0.0093 µM.

B8: IFN-gamma 2'F-6 (ssRNA)
RNA: GGGAGGACGAUGCGGUGGAGUUUUAAUCUUACUUCCUACUCUUGCUCCACUGGGUCAGACGACUCGCCCGA
modifications: 2'-F all C and U
For B8, the Kd with IFN-gamma [12] came out at 0.0032 µM.

B9: IFN-gamma 2'F-1 (ssRNA)
RNA: GGGAGGACGAUGCGGACACCGUUAAUCUGAGGCCCUGUCCUAUUCCUUCACGCCUCAGACGACUCGCCCGA
modifications: 2'-F all C and U
For B9, the Kd in the data set with IFN-gamma [13] came to 0.0068 µM.

B10: TNF 16C (ssRNA)
RNA: GGGAGCUCAGAAUAAACGCUCAACCUGGUGGUCGUGCGGCUGUCGCCUCAAGGUUCGACAUGAGGCCCGGAUCCGGC
The molecule B10 registered a Kd with TNF-alpha [14] of 0.2 µM. In addition, the Ki with TNF-alpha [15] was ~0.313 µM.

B11: TNF 16C 2'F (ssRNA)
RNA: B10 RNA
modifications: 2'-F all C and U
B11 yielded a Kd with TNF-alpha [8] of 0.123 µM. The molecule further came in with a Ki with TNF-alpha [9] of 9.19 µM.

B12: TNF 18C (ssRNA)
RNA: GGGAGCUCAGAAUAAACGCUCAAUGUCGAGUGCGAUGGAGGAGUAGGGAUGCAUUCGACAUGAGGCCCGGAUCCGGC
In turn, B12 showed a dissociation constant (Kd) with TNF-alpha [16] of 0.46 µM. The Ki with TNF-alpha [7] was 2.5 µM. For the molecule GGGAGGACGAUGCGGAGGGUUGGGAGGGGUCCUUCUU (ssRNA, 2'-F all C and U) [IFN-gamma 2'F-28 truncate], in the data set with IFN-gamma [2], the affinity, expressed as Kd, was 0.053 µM.

B13: TNF 14C (ssRNA)
RNA: GGGAGCUCAGAAUAAACGCUCAACGGCUUGCAGGUCGCCGAAAUGACCGCACAUUCGACAUGAGGCCCGGAUCCGGC
As to B13, the affinity with TNF-alpha [6], expressed as Kd, was 0.06 µM. This molecule showed a Ki with TNF-alpha [7] of 0.93 µM.

B14: TNF 14C 2'F (ssRNA)
RNA: B13 RNA
modifications: 2'-F all C and U
B14 yielded a Kd with TNF-alpha [8] of 0.133 µM. The molecule further yielded a Ki with TNF-alpha [9] of 11.5 µM.

B15: IL-4 2'F-9 (ssRNA)
RNA: GGGAGACAAGAAUAAACGCUCAAACGGCUGUAACAAACAAGGUGGGGGGCCACACAGAGCGGGUUCGACUUCGACAGGAGGCUCACAACAGGC
modifications: 2'-F all C and U
B15 came in with a Kd in the data set with IL-4 [17] of 0.0147 µM.

B16: TNF 4A (ssRNA)
RNA: GGGAGCUCAGAAUAAACGCUCAACGCACUCGGACGGAAUCUCCGUAGGACACGUUCGACAUGAGGCCCGGAUCCGGC
The molecule B16 displayed a Kd in the data set with TNF-alpha [6] of 0.32 µM.

B17: TNF 25A (ssRNA)
RNA: GGGAGCUCAGAAUAAACGCUCAAGGCCGCAUGCCCCUCCUAACAGCAUGCAACUUCGACAUGAGGCCCGGAUCCGGC
As for B17, in the data set with TNF-alpha [18], the Kd was found to be 0.04 µM. Moreover, the affinity with TNF-alpha [19] corresponds to a Ki of 0.021 µM.

B18: IFN-gamma 2'F/NH2-3 (ssRNA)
RNA: GGGAGGACGAUGCGGUUCAGAGGGUAGGUAAGUGGGAGGAAAAAUGCCGUAUCGCCUCAGACGACUCGCCCGA
modifications: 2'-F all C, 2'-NH2 all U
Regarding B18, in the data set with IFN-gamma [1], the Kd amounted to 0.106 µM.

B19: TNF 8C (ssRNA)
RNA: GGGAGCUCAGAAUAAACGCUCAAGUCCACACUUUGCCGAGCGUCCUAGUGUUCGACAUGAGGCCCGGAUCCGGC
Turning to B19, the Kd with TNF-alpha [20] came out at 0.43 µM.

B20: TNF 23A (ssRNA)
RNA: GGGAGCUCAGAAUAAACGCUCAACCUCAUCCUCGCACGCCAUCGCCUGAACCGUUCGACAUGAGGCCCGGAUCCGGC
In the data set with TNF-alpha [14], B20 had a Kd of 0.052 µM. In the data set with TNF-alpha [15], the Ki was ~0.241 µM.

B21: TNF 23A 2'F (ssRNA)
RNA: B20 RNA
modifications: 2'-F all C and U
Molecule B21 came in with a Kd with TNF-alpha [8] of 0.4 µM. The molecule further showed a Ki with TNF-alpha [9] of 14.7 µM.

B22: IFN-gamma 2'F-1 truncate (ssRNA)
RNA: GGGAGGACGAUGCGGACACCGUUAAUCUGAGGCCCUGUCCUAUUCCUUCACGCCUCAGA
modifications: 2'-F all C and U
In the case of B22, the Kd with IFN-gamma [21] was found to be 0.0044 µM.

For orientation: Kd means the free concentration of one partner at which half of the binding sites on the other are occupied at equilibrium, for simple one-to-one binding. A word on the IC50: it is the concentration at which inhibition is half-maximal. Low values mean inhibition by little substance, high ones a need for much substance. The term Ki denotes a measure of affinity in units of concentration, obtained from inhibition or displacement. A low value points to a stronger hold on the target.
